These results are taken from PMC2424174 (2008).

The target of assay [1] is Nucleolin (cell surface, MDA-MB-231 cells) (Homo sapiens, UniProt P19338). Briefly: iodinated HB-19 cell binding displaced by unlabeled HB-19.
Assay [2] addresses Nucleolin (cell surface, HUVECs) (Homo sapiens, UniProt P19338). The description is as above.

Where no end group is shown, it is not given here. Ahx = NCCCCCC(=O)O

Sequence of Nucleolin (cell surface, MDA-MB-231 cells) (P19338 2-710): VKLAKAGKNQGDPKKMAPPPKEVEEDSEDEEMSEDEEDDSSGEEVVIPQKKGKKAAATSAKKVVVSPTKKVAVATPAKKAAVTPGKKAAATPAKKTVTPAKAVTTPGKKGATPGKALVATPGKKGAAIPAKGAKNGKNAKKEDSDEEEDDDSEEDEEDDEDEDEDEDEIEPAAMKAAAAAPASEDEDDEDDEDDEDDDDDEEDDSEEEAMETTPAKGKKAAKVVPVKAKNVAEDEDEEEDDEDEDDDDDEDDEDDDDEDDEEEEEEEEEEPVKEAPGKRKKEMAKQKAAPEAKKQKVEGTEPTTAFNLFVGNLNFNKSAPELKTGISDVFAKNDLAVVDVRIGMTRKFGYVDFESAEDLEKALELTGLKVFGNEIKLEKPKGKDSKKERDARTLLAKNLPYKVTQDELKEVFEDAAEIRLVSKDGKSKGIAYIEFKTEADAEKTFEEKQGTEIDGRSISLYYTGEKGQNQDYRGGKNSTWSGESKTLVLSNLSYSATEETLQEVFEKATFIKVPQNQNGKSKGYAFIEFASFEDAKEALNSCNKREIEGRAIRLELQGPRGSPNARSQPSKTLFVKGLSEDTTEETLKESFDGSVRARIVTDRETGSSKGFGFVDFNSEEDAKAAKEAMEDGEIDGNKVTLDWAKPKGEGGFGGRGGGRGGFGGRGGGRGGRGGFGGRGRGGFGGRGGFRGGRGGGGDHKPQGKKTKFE
Sequence of Nucleolin (cell surface, HUVECs) (P19338 2-710): as above

B1: HB-19 pseudopeptide (peptide)
chain: KKKGPKEK-{Ahx-NH2}
modifications: also: pentavalent Lys-psi(CH2N)-Pro-Arg on template, attachment places not given here, reduced psi(CH2N) bond Lys-Pro
On to B1, for which the Kd in assay [1] worked out at 312 nM; in assay [2], 825 nM.
